Laboratory results reported in patent US20110104667 (INFOSCITEX CORPORATION, published 2011).

Biological target: recombinant anthrax protective antigen (rPA) (UniProt P13423 P13423:30-764)
Assay: ELONA
Conditions: tags: MW about 83 kDa; label: 5' biotin

Sequence of recombinant anthrax protective antigen (rPA) (P13423 30-764, one chain of several): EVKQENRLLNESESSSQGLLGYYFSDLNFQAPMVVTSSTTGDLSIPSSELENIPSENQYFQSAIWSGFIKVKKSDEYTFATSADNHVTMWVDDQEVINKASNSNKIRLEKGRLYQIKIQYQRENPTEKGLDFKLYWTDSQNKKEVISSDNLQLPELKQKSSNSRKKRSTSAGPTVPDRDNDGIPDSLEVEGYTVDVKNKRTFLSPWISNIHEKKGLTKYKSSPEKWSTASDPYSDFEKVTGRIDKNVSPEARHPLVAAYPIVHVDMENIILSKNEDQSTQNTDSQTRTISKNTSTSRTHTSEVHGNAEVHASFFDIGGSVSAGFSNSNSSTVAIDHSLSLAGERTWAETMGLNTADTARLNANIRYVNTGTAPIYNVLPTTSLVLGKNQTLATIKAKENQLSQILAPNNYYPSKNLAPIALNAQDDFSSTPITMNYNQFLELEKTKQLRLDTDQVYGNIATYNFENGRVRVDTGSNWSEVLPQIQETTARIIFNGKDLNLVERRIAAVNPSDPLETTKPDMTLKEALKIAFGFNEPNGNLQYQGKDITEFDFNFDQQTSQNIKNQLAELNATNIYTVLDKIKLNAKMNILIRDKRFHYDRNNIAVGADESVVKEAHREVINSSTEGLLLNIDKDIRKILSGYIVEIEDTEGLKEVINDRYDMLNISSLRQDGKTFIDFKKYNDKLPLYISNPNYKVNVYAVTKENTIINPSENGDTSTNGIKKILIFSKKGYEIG

B1: rPA DNA aptamer, biotinylated (ssDNA)
DNA: TACGACTCACTATAGGGATCCCGAGCTGCAATGGAGTGATTACTAGGGATGTGCGAGGCGCCGAATTCCCTTTAGTGAGGGTT
  binding result: binds
